# The supplement of paper PMC10567573
# B1: ZNF449 (parent)
# chain: RIHSGEEPHKCPECGKRFLRSSDL
# Variants of: B1
# Assay: protein stability index of a GFP-peptide fusion (GPS, HEK-293T) (PSI 1-6); higher = more stable
# Conditions: c terminus: a fixed tail appended
# 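Further: lentivirally expressed fusions sorted by FACS into six bins by GFP to DsRed ratio, PSI derived from sequencing read proportions per bin multiplied by bin number.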
row,Variant,protein stability index
1,RIHSGEEPHKWPECGKRFLRSSDL,3.79
2,RIHSGEEPHKLPECGKRFLRSSDL,4.11
3,RIHSGEEPHKMPECGKRFLRSSDL,4.35
4,RIHSGEEPHKSPECGKRFLRSSDL,3.72
5,RIHSGEEPHKYPECGKRFLRSSDL,4.21
6,RIHSGEEPHKNPECGKRFLRSSDL,4.57
7,RIHSGEEPHKIPECGKRFLRSSDL,4.51
8,RIHSGEEPHKDPECGKRFLRSSDL,4.17
9,RIHSGEEPHKVPECGKRFLRSSDL,4.19
10,RIHSGEEPHKKPECGKRFLRSSDL,4.5
11,RIHSGEEPHKPPECGKRFLRSSDL,4.23
12,RIHSGEEPHKFPECGKRFLRSSDL,3.54
13,RIHSGEEPHKAPECGKRFLRSSDL,4.32
14,RIHSGEEPHKTPECGKRFLRSSDL,4.17
15,RIHSGEEPHKRPECGKRFLRSSDL,4.32
16,RIHSGEEPHKHPECGKRFLRSSDL,4.41
17,RIHSGEEPPKCPECGKRFLRSSDL,3.2
18,RIHSGEEPIKCPECGKRFLRSSDL,4.09
19,RIHSGEEPRKCPECGKRFLRSSDL,3.18
20,RIHSGEEPQKCPECGKRFLRSSDL,3.19
21,RIHSGEEPMKCPECGKRFLRSSDL,3.42
22,RIHSGEEPWKCPECGKRFLRSSDL,2.73
23,RIHSGEEPLKCPECGKRFLRSSDL,2.19
24,RIHSGEEPFKCPECGKRFLRSSDL,3.95

row,Variant,protein stability index
1,RIHSGEEPGKCPECGKRFLRSSDL,2.99
2,RIHSGEEPTKCPECGKRFLRSSDL,3.44
3,RIHSGEEPYKCPECGKRFLRSSDL,3.48
4,RIHSGEEPSKCPECGKRFLRSSDL,3.28
5,RIHSGEEPVKCPECGKRFLRSSDL,4.15
6,RIHSGEEPKKCPECGKRFLRSSDL,3.83
7,RIHSGEEPHKCSECGKRFLRSSDL,3.66
8,RIHSGEEPHKCAECGKRFLRSSDL,3.15
9,RIHSGEEPHKCQECGKRFLRSSDL,3.33
10,RIHSGEEPHKCRECGKRFLRSSDL,2.92
11,RIHSGEEPHKCWECGKRFLRSSDL,2.05
12,RIHSGEEPHKCFECGKRFLRSSDL,3.29
13,RIHSGEEPHKCTECGKRFLRSSDL,3.76
14,RIHSGEEPHKCKECGKRFLRSSDL,3.2
15,RIHSGEEPHKCCECGKRFLRSSDL,3.32
16,RIHSGEEPHKCEECGKRFLRSSDL,4.41
17,RIHSGEEPHKCLECGKRFLRSSDL,3.23
18,RIHSGEEPHKCNECGKRFLRSSDL,4.18
19,RIHSGEEPHKCVECGKRFLRSSDL,3.5
20,RIHSGEEPHKCIECGKRFLRSSDL,2.94
21,RIHSGEEPHKCMECGKRFLRSSDL,3.36
22,RIHSGEEPHKCYECGKRFLRSSDL,3.12
23,RIHSGEEPHKCGECGKRFLRSSDL,3.08
24,RIHSGEEPHKCDECGKRFLRSSDL,4.36

row,Variant,protein stability index
1,RIHSGEEPHKCHECGKRFLRSSDL,3.24
2,RIHSGEEPHACPECGKRFLRSSDL,3.35
3,RIHSGEEPHGCPECGKRFLRSSDL,3.82
4,RIHSGEEPHYCPECGKRFLRSSDL,3.94
5,RIHSGEEPHDCPECGKRFLRSSDL,4.19
6,RIHSGEEPHRCPECGKRFLRSSDL,3.55
7,RIHSGEEPHICPECGKRFLRSSDL,3.74
8,RIHSGEEPHTCPECGKRFLRSSDL,3.82
9,RIHSGEEPHWCPECGKRFLRSSDL,3.72
10,RIHSGEEPHMCPECGKRFLRSSDL,3.17
11,RIHSGEEPHHCPECGKRFLRSSDL,2.95
12,RIHSGEEPHVCPECGKRFLRSSDL,4.17
13,RIHSGEEPHECPECGKRFLRSSDL,3.57
14,RIHSGEEPHSCPECGKRFLRSSDL,3
15,RIHSGEEPHQCPECGKRFLRSSDL,3.39
16,RIHSGEEPHPCPECGKRFLRSSDL,3.7
17,RIHSGEEPHLCPECGKRFLRSSDL,3.96
18,RIHSGEEPHNCPECGKRFLRSSDL,3.42
19,RIHSGEEPHKCPECYKRFLRSSDL,3.44
20,RIHSGEEPHKCPECMKRFLRSSDL,3.88
21,RIHSGEEPHKCPECFKRFLRSSDL,3.48
22,RIHSGEEPHKCPECSKRFLRSSDL,3.76
23,RIHSGEEPHKCPECTKRFLRSSDL,3.89
24,RIHSGEEPHKCPECQKRFLRSSDL,3.85

row,Variant,protein stability index
1,RIHSGEEPHKCPECPKRFLRSSDL,4.37
2,RIHSGEEPHKCPECHKRFLRSSDL,2.87
3,RIHSGEEPHKCPECVKRFLRSSDL,3.25
4,RIHSGEEPHKCPECWKRFLRSSDL,2.87
5,RIHSGEEPHKCPECDKRFLRSSDL,3.27
6,RIHSGEEPHKCPECCKRFLRSSDL,3.28
7,RIHSGEEPHKCPECKKRFLRSSDL,3.63
8,RIHSGEEPHKCPECEKRFLRSSDL,4.24
9,RIHSGEEPHKCPECNKRFLRSSDL,3.52
10,RIHSGEEPHKCPECAKRFLRSSDL,3.9
11,RIHSGEEPHKCPECIKRFLRSSDL,3.6
12,RIHSGEEPHKCPECLKRFLRSSDL,3.58
13,RIHSGEEPHKCPECGKRYLRSSDL,3.87
14,RIHSGEEPHKCPECGKRALRSSDL,5.36
15,RIHSGEEPHKCPECGKRMLRSSDL,3.32
16,RIHSGEEPHKCPECGKRNLRSSDL,4.68
17,RIHSGEEPHKCPECGKRKLRSSDL,4.33
18,RIHSGEEPHKCPECGKRELRSSDL,4.56
19,RIHSGEEPHKCPECGKRCLRSSDL,4.15
20,RIHSGEEPHKCPECGKRILRSSDL,3.22
21,RIHSGEEPHKCPECGKRQLRSSDL,3.58
22,RIHSGEEPHKCPECGKRWLRSSDL,3.5
23,RIHSGEEPHKCPECGKRPLRSSDL,3.83
24,RIHSGEEPHKCPECGKRLLRSSDL,2.86

row,Variant,protein stability index
1,RIHSGEEPHKCPECGKRVLRSSDL,2.92
2,RIHSGEEPHKCPECGKRDLRSSDL,4.4
3,RIHSGEEPHKCPECGKRTLRSSDL,3.75
4,RIHSGEEPHKCPECGKRSLRSSDL,3.29
5,RIHSGEEPHKCPECGKRRLRSSDL,3.33
6,RIHSGEEPHKCPECGKDFLRSSDL,3.71
7,RIHSGEEPHKCPECGKVFLRSSDL,3.17
8,RIHSGEEPHKCPECGKYFLRSSDL,3.58
9,RIHSGEEPHKCPECGKSFLRSSDL,4
10,RIHSGEEPHKCPECGKEFLRSSDL,4.2
11,RIHSGEEPHKCPECGKCFLRSSDL,3.74
12,RIHSGEEPHKCPECGKQFLRSSDL,3.63
13,RIHSGEEPHKCPECGKFFLRSSDL,3.2
14,RIHSGEEPHKCPECGKPFLRSSDL,3.66
15,RIHSGEEPHKCPECGKIFLRSSDL,3.72
16,RIHSGEEPHKCPECGKTFLRSSDL,3.97
17,RIHSGEEPHKCPECGKHFLRSSDL,4.23
18,RIHSGEEPHKCPECGKNFLRSSDL,3.4
19,RIHSGEEPHKCPECGKWFLRSSDL,3.97
20,RIHSGEEPHKCPECGKKFLRSSDL,4.13
21,RIHSGEEPHKCPECGKGFLRSSDL,3.12
22,RIHSGEEPHKCPECGKLFLRSSDL,3.08
23,RIHSGEEPHKCPECGKAFLRSSDL,3.61
24,RIHSGEEPHKCPECGKMFLRSSDL,3.59

row,Variant,protein stability index
1,RIHSGEEPHKCPECGKRFNRSSDL,3.27
2,RIHSGEEPHKCPECGKRFKRSSDL,4.04
3,RIHSGEEPHKCPECGKRFERSSDL,4.32
4,RIHSGEEPHKCPECGKRFGRSSDL,4.31
5,RIHSGEEPHKCPECGKRFFRSSDL,3.26
6,RIHSGEEPHKCPECGKRFPRSSDL,3.54
7,RIHSGEEPHKCPECGKRFCRSSDL,4.48
8,RIHSGEEPHKCPECGKRFARSSDL,3.96
9,RIHSGEEPHKCPECGKRFMRSSDL,4.05
10,RIHSGEEPHKCPECGKRFHRSSDL,3.41
11,RIHSGEEPHKCPECGKRFDRSSDL,3.88
12,RIHSGEEPHKCPECGKRFIRSSDL,2.76
13,RIHSGEEPHKCPECGWRFLRSSDL,2.69
14,RIHSGEEPHKCPECGMRFLRSSDL,2.61
15,RIHSGEEPHKCPECGTRFLRSSDL,3.68
16,RIHSGEEPHKCPECGHRFLRSSDL,3.19
17,RIHSGEEPHKCPECGERFLRSSDL,3.99
18,RIHSGEEPHKCPECGGRFLRSSDL,3.13
19,RIHSGEEPHKCPECGVRFLRSSDL,2.37
20,RIHSGEEPHKCPECGDRFLRSSDL,4.41
21,RIHSGEEPHKCPECGCRFLRSSDL,3.32
22,RIHSGEEPHKCPECGLRFLRSSDL,2.78
23,RIHSGEEPHKCPECGQRFLRSSDL,3.66
24,RIHSGEEPHKCPECGPRFLRSSDL,3.82

row,Variant,protein stability index
1,RIHSGEEPHKCPECGNRFLRSSDL,3.58
2,RIHSGEEPHKCPECGRRFLRSSDL,3.9
3,RIHSGEEPHKCPECGYRFLRSSDL,3.77
4,RIHSGEEPHKCPECGFRFLRSSDL,2.55
5,RIHSGEEPHKCPECGSRFLRSSDL,3.68
6,RIHSGEEPHKCPECGIRFLRSSDL,2.93
7,RIHSGEEPHKCPEAGKRFLRSSDL,4.26
8,RIHSGEEPHKCPENGKRFLRSSDL,4.3
9,RIHSGEEPHKCPEGGKRFLRSSDL,4.65
10,RIHSGEEPHKCPEEGKRFLRSSDL,5.1
11,RIHSGEEPHKCPEHGKRFLRSSDL,3.95
12,RIHSGEEPHKCPELGKRFLRSSDL,3.79
13,RIHSGEEPHKCPEIGKRFLRSSDL,5
14,RIHSGEEPHKCPETGKRFLRSSDL,4.69
15,RIHSGEEPHKCPEWGKRFLRSSDL,4.39
16,RIHSGEEPHKCPEYGKRFLRSSDL,3.6
17,RIHSGEEPHKCPEKGKRFLRSSDL,3.87
18,RIHSGEEPHKCPEVGKRFLRSSDL,4.21
19,RIHSGEEPHKCPEQGKRFLRSSDL,4.96
20,RIHSGEEPHKCPERGKRFLRSSDL,4.32
21,RIHSGEEPHKCPEPGKRFLRSSDL,4.06
22,RIHSGEEPHKCPEDGKRFLRSSDL,4.58
23,RIHSGEEPHKCPEMGKRFLRSSDL,4.21
24,RIHSGEEPHKCPEFGKRFLRSSDL,3.47

row,Variant,protein stability index
1,RIHSGEEPHKCPESGKRFLRSSDL,4.77
2,RIHSGEEPHKCPCCGKRFLRSSDL,3.71
3,RIHSGEEPHKCPGCGKRFLRSSDL,3.21
4,RIHSGEEPHKCPFCGKRFLRSSDL,3.77
5,RIHSGEEPHKCPTCGKRFLRSSDL,3.41
6,RIHSGEEPHKCPYCGKRFLRSSDL,3.54
7,RIHSGEEPHKCPACGKRFLRSSDL,2.72
8,RIHSGEEPHKCPRCGKRFLRSSDL,2.84
9,RIHSGEEPHKCPVCGKRFLRSSDL,3.44
10,RIHSGEEPHKCPNCGKRFLRSSDL,3.43
11,RIHSGEEPHKCPPCGKRFLRSSDL,3.6
12,RIHSGEEPHKCPQCGKRFLRSSDL,2.13
13,RIHSGEEPHKCPKCGKRFLRSSDL,2.72
14,RIHSGEEPHKCPLCGKRFLRSSDL,3.38
15,RIHSGEEPHKCPHCGKRFLRSSDL,3.34
16,RIHSGEEPHKCPICGKRFLRSSDL,3.26
17,RIHSGEEPHKCPWCGKRFLRSSDL,3.86
18,RIHSGEEPHKCPDCGKRFLRSSDL,2.59
19,RIHSGEEPHKCPMCGKRFLRSSDL,2.92
20,RIHSGEEPHKCPSCGKRFLRSSDL,3.63
